Values belong to the molecule of their own block, whether it stands above or below them.
Experiments:
[1] = biological target: T1, human CD73 (human) (UniProt P21589); test: flow cytometry, human PC3 prostate cancer cells, isotype control plot above the E7 plot; CD73-PE against SSC-A
T1 sequence: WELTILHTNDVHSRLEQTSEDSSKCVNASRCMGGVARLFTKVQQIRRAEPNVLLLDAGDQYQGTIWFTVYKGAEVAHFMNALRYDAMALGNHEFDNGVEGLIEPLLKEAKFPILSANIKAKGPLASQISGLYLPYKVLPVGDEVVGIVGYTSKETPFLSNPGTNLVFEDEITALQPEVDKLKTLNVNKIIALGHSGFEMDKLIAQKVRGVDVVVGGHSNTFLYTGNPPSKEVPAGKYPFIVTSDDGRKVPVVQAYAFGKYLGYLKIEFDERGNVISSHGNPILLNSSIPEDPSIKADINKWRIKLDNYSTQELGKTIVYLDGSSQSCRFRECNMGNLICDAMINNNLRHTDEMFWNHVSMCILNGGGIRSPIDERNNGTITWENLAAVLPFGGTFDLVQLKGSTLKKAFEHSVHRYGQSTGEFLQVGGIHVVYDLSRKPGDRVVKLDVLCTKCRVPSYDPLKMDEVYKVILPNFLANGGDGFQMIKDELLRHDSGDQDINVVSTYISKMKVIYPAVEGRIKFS

[2] = biological target: T1, human CD73 (human); test: flow cytometry, human PC3 prostate cancer cells, isotype control plot above the 2C5 plot (its gate is drawn larger than in the other plots); CD73-PE against SSC-A
[3] = biological target: mouse CD73 (mouse) (UniProt Q61503); test: flow cytometry, murine E0771 breast cancer cells, isotype control; PE against SSC-A
UniProt Q61503, sequence (Q61503 29-551 limits assumed): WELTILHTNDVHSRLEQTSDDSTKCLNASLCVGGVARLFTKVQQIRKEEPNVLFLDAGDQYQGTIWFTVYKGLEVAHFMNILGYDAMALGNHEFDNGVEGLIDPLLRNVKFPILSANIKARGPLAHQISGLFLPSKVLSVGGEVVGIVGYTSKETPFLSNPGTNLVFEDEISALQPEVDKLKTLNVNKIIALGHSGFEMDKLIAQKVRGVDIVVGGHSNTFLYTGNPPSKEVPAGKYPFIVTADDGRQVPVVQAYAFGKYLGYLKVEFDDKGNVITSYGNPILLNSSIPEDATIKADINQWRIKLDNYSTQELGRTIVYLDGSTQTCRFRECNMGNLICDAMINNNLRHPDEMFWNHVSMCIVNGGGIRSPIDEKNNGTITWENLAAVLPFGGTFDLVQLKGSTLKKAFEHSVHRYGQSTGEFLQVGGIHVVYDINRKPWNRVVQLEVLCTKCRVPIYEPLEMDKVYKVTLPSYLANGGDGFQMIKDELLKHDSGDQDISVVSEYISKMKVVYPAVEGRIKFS

[4] = biological target: T1, human CD73 (human); test: flow cytometry, human PC3 prostate cancer cells, 10 ug/ml antibody, PE anti-mIgG secondary antibody; CD73-PE against SSC-A

percent of cells in the CD73-PE gate [1]: 1.02
percent of cells in the CD73-PE gate [2]: 2.84
percent of cells in the CD73 gate [3]: 0.8
Molecule: Isotype (antibody)

percent of cells in the CD73-PE gate [4]: 99.7
B1: 2C5 (a commercially-available anti-CD73 mAb, Astrazeneca) (antibody, from another filing, V domains shown)
VH: EVQLLESGGGLVQPGGSLRLSCAASGFTFSSYAMSWVRQAPGKGLEWVSAISGSGGSTYYADSVKRRFTISRDNSKNTLYLQMNSLRAEDTAVYYCARDKGYYWYMDVWGQGTMVTVSS
VL: QSVLTQPPSVSVSPGQTASITCSGDKVGDKYASWYQQKPGQSPVLVIYEDTKRLSGIPERFSGSNSGNTATLTISGTQAMDEADYYCQAWDTSFWVFGGGTKLTVL
